This note sets out measurements from patent publication US20240150489A1.

For assay [1], the target named is CD38 on Raji-CD47KO cells (human) (UniProt P28907). In words: flow cytometry dot plot, Raji-CD47KO cells, saturating Darzalex-AF647 alone; other quadrants printed Q1 0, Q2 0, Q4 0.23. (A flow cytometer gives signals particle by particle.)
Assay [2] shares this target. In words: flow cytometry dot plot, Raji-CD47KO cells, mix of saturating Darzalex-AF647 and BEAT 38/47-60-AF488; other quadrants printed Q1 0.070, Q3 0.21, Q4 0.035.

As to Darzalex (antibody), in assay [1], the percent of cells in quadrant Q3 (AF647 positive, AF488 negative) was determined as 99.8%. In assay [2], the percent of cells in quadrant Q2 (AF488 and AF647 double positive) stood at 99.7%.
